Test: yeast display, Sf9 membrane polyspecificity reagent, FACS + sequencing; frameworks hold sequencing errors
Outline: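 Galactose induction of a Saccharomyces cerevisiae BJ5465 synthetic nanobody display library ran 36–48 hours. The cells were then stained for 1 hour at 4 °C with 10% biotinylated, detergent-solubilized Sf9 membrane reagent, pulled down on streptavidin microbeads and FACS-sorted into low and high (top ~1%) gates on expression and reagent-binding fluorescence. Labels for polyreactivity follow the gate of origin.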

Sequence | polyreactivity (PSR sort gate)
QVQLVESGGGLVQAGGSLRLSCAASGSIFAGNAMGWYRQAPAKERELVAAISRRGGSTYYADSVKGRFTISRDNAKNTVYLQMNSLKPEDTAVSYCNALLRYAYHAAYGYWGQGTQVTVSS | high polyreactivity
QVQLVESGGGLVQAGGSLRLSCVPTDMGWYRQAPGKERELVATISLSDGNTYYADSVKGRFTISRDNAKNTVYLQMNSLKPEDTAVYYCNALHTWHQTYDYWGQCTQVTVSS | low polyreactivity
QVQLVESGGGLVQAGGSLRLSCAASGITFTQYTMGWYRQARGKQRELVAAISSSGGRTYYADSVKGRYTISRDNAKKTVYLQMNSLKPEDTAVYYCAAAWRRTFDYCGQGTQVTVSS | high polyreactivity
QVQLVESGGGLVQAGGSLRLSCAASGFINSDYAMGWYRPAPGKERELVAVITWRSGSTYYADSVKGRFTISRDYAKNTVYLQMNSLKPEDTAVYYCAARNYRNYSQGRRLGYNDWGQGTQVTVTS | high polyreactivity
QVQLVESGGGLVQAGGSLRLSCAASGGTFYAYAMGSYRQAPGKERELVAAITNSGGSTYYADSVKGRFTISRDNAKNNVYLQMHSLKPEDTAVYYCARRRSYRDNYWGQGTQVTVSS | high polyreactivity
QVQLVESGGGLVQAGGSLRLSCAASGSTFFYNAMGWYIQAPGKERELVAAITVTGTSTYYADSVKGRFTISRDNAKNTVYLQMNSLKPEDTGVYYCNTSLKRRRLRFNYWGQGTQVTVSS | low polyreactivity
QVQLVESGGGLVQAGGSLRLSCAASGNTFGENAMGWDRQAPRKETELVAAITYGGTTNYADSVKGRFTISRDNAKNTVYLQMNSLKPEDTAVYYCNAKFGISQPGHSGLLKMDYWGQGTQVTVSS | low polyreactivity
QVQLVESGGGLVQAGGSLRLSFAASGFTFRLYAMGWYRQAPGKERELVAAITSSSGSTYYADSVKGRFTISRDNAKNTVYLQMNSLKPEDTAVYYCNADRGDSSRRYGYWGQGTQVTVSS | high polyreactivity
QVQLVESGGGLVQAGGSLRLSCAASGRIFVVNAMGWYRQAPGKERELVATITRSGGITYYADSVKGRFTISRDNAKNTVYLQMNSLKPEDTAVYYCNADVLFYTYYTRGRFDFDYWGQGTQVTVAS | low polyreactivity
QVQLQESGGVLVQAGGDLRLSCAASGNIFRDYIMGWYRQAPGQERDFVAGIDRGANTNYADSVKGRFTISRDNAKNTVYLQMNSLKPEDTAVYYCAVHTAIVPDFIYWGQGTQVTVSS | low polyreactivity
QVQLVESGGGLVQAGGSLRLSCAASGYIYYYYAMGWYRQAPVKERELVAAITFSGGSTYYADSVKGRFTISRDNAKNTVYLQMNSLKPEDTAVYYCAKVELRDSALLGSDEYDYLGQGTQVTVSS | low polyreactivity
QVQLVESGGGLVQAGGSLRLSCAASGRIFAYYAMGWYRQAPGKERELVAAINTSGATTNYADSVKGRFTISRDKAKNTVYLQMNSLKPEDTAVYYCAAWKGVYTYNYWGQGTQVTVSS | high polyreactivity
QVQLVESGGGIVQAGGSLRLSCAASGGTFTRYAMGWYRQAPGKEREFVAAISGSGGSTYYADSVKGRFTISRDNAKNTVYLQMNSLKPVDTAVYYCNKVPVYPPSYYWGQGTQVTVSS | low polyreactivity
QVQLVESGGGLVQAGRSLRLSCAAYGYTFEFYAMGWYRQAPGKEREFVAGINSSGVTTYYADSVKGRFTIARDNAKYTVYLQMNSLKPVYSAVYYCAATDVVYTWFFLVYIPYDYWGQGTQVTVSS | low polyreactivity
QVQLVESGGGLVQAGGSLRLSCAASGRIFTSYAMGWYRQAPGKEREFVAAITKSGGSTYYADSVKGRFTISRDNAKNTVYLQMNSLKPEDTAVYYCAVEGWDVYQDPYLYDYWGQGTQVTVSS | low polyreactivity
QVQLVESGGGLVQAGGSLRLSCAASGSIFTSYAMGWYRHAPGKERELVAAITSTGGSTYYADSVKGRFTISRDNAKNTVYLQMNSLKPEDTAVYYCNADGGTPYDYWGQGTQVTVSS | low polyreactivity
QVQLVESGGGLVQAGGSLRLSCAASARIFTAYAMGWYRQAPGKERELVASISTSGGRTYYADSVKGRFTISRDNAKNTVYLQINSLKPEDTAVYYFAADFESYSRYYDGYDYWGQGTQVTVSS | high polyreactivity
QVQLVESGGGLVQAGGSLRLSCAASGFTFGYYAMGWYRQAPGKERELVAAISKRGGSTYYADSVKGRFTISRDNAKNTVYLQMNSLKPEDTAVYYCATRYTGYPFYGYDYWGQGTQVTVSS | high polyreactivity
QVHLVESGAGLVQAGGSLRISCAASGIIFRLYGLGWYRQAPGKERELVAGINTGGSTSADSVKGRFTISRDNAKNTVYLQMNSLKPEDTAVYYCARDPGYYHPWYRYDYWGQGTQVTVSS | low polyreactivity
QVQLVESGGGLVQAGGSLRLSCAASGRTFARHVMGWYCQAPGKVRELVAGITTSGGSTYYADSVKGRFTISRDNPKNTGYFQMNSLKPEDTAVYYCATDRQRYYRTVRSPIFNYWGQGTQVTVSS | high polyreactivity
QVQLVESAGGLVQAGGSLSLSCAASGSTFAGYVMGWYRQAPGKERELVAAISRSGGSTYYADSVKGRFTISRDNAKNTVYLQMNSLKPEDTAVYYCAARNSPGLPGDYWGQGTQVTVSS | high polyreactivity
QVQLVESGGGLVQAGGSLRLSCAASGITSRRYAMGWYRKAPGKEREFVAAIRTICGSTYYADSVKGRFTISRDNAKNTVYLQMNSLKPEDTAVYYCAARYFLSRSGASHLDSWGQGTQVTVSS | high polyreactivity

Sequence | polyreactivity (PSR sort gate)
QVQLVESGGGLVQAGGSLRLSCAPSGFTFYPYAMGWSRQAPGKERELVAAIRYSGGSTYYADSVKGRFTISRDNAKNTVYLQMNSLKPEATAVYYCAADGSNPWYRNSWSRYRFGYWGQGTQVTVSS | high polyreactivity
QVQLVESGGGLVHAGGSIRLSCAASGRIFGYYTMGWYRQAPGKERELVAAIRGNGGSTYYADSVKGLFTISRDNAKNTVYLQMHSLKPQDTAVYYCAATDISYRRVPYGRKKQYDYWGQGTQVTVSS | high polyreactivity
QVQLVESGGGLVQAGGSLRLSCAASGFTFPSNAMGWYRQAPGKERELVAAISSTDSTNYADSVKGRFTISRDNAKNTVYLQMNSLKPEDTAVFYCNADRDDDYDYWGQGTQVTVSS | low polyreactivity
QVQLVESGGGLVQAGGSLRLSCAASGSTLRRYAMGWYRQAPGKERELVAAITSRGTDTYYADSVKGRFTISRDNAKNTVYLQMNSLKPEDTAVYYCANRRGYVYYPGYDYWGQGTQVTVSS | high polyreactivity
QDQLVESGGGLVQAGGSLRLSCAASGRTFRSYAMGWSRQAPGKERELVAAISTRGGSTYYADSVKGRFTISRDYAKNTVYLQMNSLKPEDTAVYYCAARGTPSARYGDWGQGTQVTVSS | high polyreactivity
QVQLVESGGGLVQSGGSLRLSCAATGSTFWNYAMGWYRQAPGKERELVAAITRGSSTNYADSVKGRFTISRDNAKNTVYLQMNSMKPEDTAVYYCAKRVGRWSAFYYWGQGTQVTVSS | high polyreactivity
QVQLVESGGGLVEAGGSLRLSCAASGYIFKSYVMGWYRQAPGTERELVAAITWSGGSTYYADSVNGRFTISRDNAKNTVYLQMNSLNPEDTAVYYCAAYPRRYRTTYDYWGQGTQVTVSS | high polyreactivity
QVQLVESGGGLVQAGGSLRLSCAASGSTFGRNAMGWYRQAPGKERELVAAISWSASRTYYADSVKGRFTISRDNAKNTVYLQMNSLIPDDTAVYYCAAEYDVGYFGYEYWGQGTQVTVSS | high polyreactivity
QVQLVESGGGLVQAGGSLRLSCAASGSTFVQYVMGWYRQAPGKERELVAAISSSGGSTYYADSVKGRFTISRDNAKNTVYLQMNSLKPEDTAVYDCAARRLPRPWTSTSDYWGQGTQVTVSS | high polyreactivity
QVQLQESGGGLVQAGGSLRLSCAASGSNFDTPTMGWYRQAPGKERELVASIAYDDNTYYADSVKGRFTISRYNAKNTVYLQMNSLKPGETAVYYCAVTDRIYYYFVYWGQGTRVTVSS | high polyreactivity
QVQLVESGGRLVQAGGSLRLICAASGFIFWYYAMGWYRQAPGKERELVADISSGGSTNYADSVKGRFTISRDNAKNTVYLQMNSLKPEDTAVYYCAADTFRRDDYWGQGTQVTVSS | low polyreactivity
QVHLVDSGGGLVQAGGSLRLSCATSGRIFGAYAMVWYRQAPGKESELVAAITSRGGNTYYADSVKGRFTISRDNAKNTVYLQMNSLKPEDTAVYYCAAGHDKRRQYYVGQSAFDYWGQGTQLTVSS | low polyreactivity
QVQLVESGGGLVQAGGSLRLSCAASGSIFYSNAMGWYRQAPGKERELVAAISVSGVTTYYADSVKGRFTISRDNAKNTVYLQMNSLKPEDTAVYYCAADTGYRYDDYYWWGGEYDYWGQGTQVTVSS | low polyreactivity
QVQLVESGGGLVQAGGSLRLSCAASGIIFYRYAMGWYRQAPGKERELVAAISGSGGRTYYADSVKGRFTISRDNAKNTVYLQMNSLKPEDTAVYYCARVYDIYHYFYAYGGDYWGQGTQVTVSS | high polyreactivity
QVQLVESGGVLVQAGGSLRLSCAASGLTFDPNAMGWYRQAPGKERELVATITQTDGSTYYADSVKGRFTISRDNAKNTVYLQMNSLKPEDTAVYYCDGLVSRGSDYWGQGTQVTVSS | low polyreactivity
QVQLVESGGGLVQAGGSLRLSCAASGITFPRYAMGWYRQAPGKERELVATITSRGGSTYYADSVKGRFTISRDNAKNTVYLQMNSLKPEDTAVYYCNAQYLLFHGYRYDYWGQCTQVTVSS | high polyreactivity
QVQLVESGGGLVQAGGSLRISCAASGSIFPRYAMGWYRQAPGKERELVAAISWRGGRTYYADSVKGRFTISRDNAKNTVYLQMNSLKPEDTAVYYCAARWRQRKSVRYGQQGYDYWGQGTQVTVSS | high polyreactivity
QVQLVESGGGLVQAGGSLRLSCAASGSIIRTYAMGWYRQAPGKERELVAAISGSGSRTYYADSVKGRFTISRDNAKNTVYLQMNSLKPEDSAVYYCAADPGTPRYQFLWYGYWGQGTQVTVSS | low polyreactivity
QVQLVESGGGLVQAGGGLRLSCAASGRTIPTYAMGWYRQAPGKERELVATITSAGSTNYADSVKGRFTISRDNAKNTVYLQMNSLKPEDTAVYYCAARRRLAWGQGTQVTVSS | high polyreactivity
QVQLVESGGGLDQAGGSLRLSCAASGRTFSYYAMGWYRQAPVKERELVAGISWRGTSTYADSVKGRFTISRDNAKNTFYLQMNRLKPEHTAVYYCNAEVTGHYSYHKFDYWGQGTQVTVSS | low polyreactivity
QVQLVESGGGLVQAGGSLRLSCAASGNTFTWYTMGWYRQAPGKERELVAGITWSGGSTFYADSVKGRFTISRDNAKNTVYLQMNSLKPEDTAVYYCAVSTEVNRYHAKYDYWGQGTQVTVSS | low polyreactivity
